Measurements as given in publication doi:10.1101/2025.08.14.670363.

Legend:
[1] = target: Rabbit skeletal muscle actin filaments (rabbit) (UniProt P68135); experiment: high-speed atomic force microscopy; F-actin held on a mica-supported lipid bilayer (DPPC:DPTAP:biotin-cap-DPPE 89:10:1); actin-free XCAP1 or XCAP1-actin complex injected at 20-100 nM; 30 mM KCl, 10 mM imidazole-HCl pH 7.0, 1 mM MgCl2, 0.5 mM EGTA, 10 mM DTT, 10 % glycerol, 0.2 mM ATP; room temperature; dwell time of single particles
[2] = target: actin-free Xenopus cyclase-associated protein 1 (Xenopus laevis); experiment: as above

Substance: actin-free Xenopus cyclase-associated protein 1 (natural protein)
- dwell time [1]: 0.2 s
- dwell time (small particles of the XCAP1-actin complex preparation) [1]: 0.2 s
- dwell time at the filament end [1]: 0.24 s
- dwell time at the filament side [1]: 0.2 s
- stoichiometry N [2]: 4
